These results are taken from patent US20230285581A1.

In test [1] the target is human MSR1 extracellular domain expressed with a N-terminal nonahistidine tag (His9-hMSR1; R&D Systems, Cat #2708-MS) (human) (UniProt P21757). Nature of the test: competition ELISA; 100 nM antibody, competitor Ac-LDL, plate-coated His9-hMSR1. On the technique in general: In an ELISA, binding on a coated surface is turned into a signal by an enzyme label.
Test [2] shares this target. Nature of the test: competition ELISA; 1 µM antibody, competitor 10 nM Ox-LDL, plate-coated His9-hMSR1.
The target is the same in test [3]. Nature of the test: competition ELISA; 300 nM antibody, competitor biot-AGE-BSA, plate-coated His9-hMSR1.
Test [4] has as its target human MSR1 endogenously expressed on PMA-differentiated THP-1 cells (human) (UniProt P21757). Nature of the test: confocal imaging, 10 µg/mL antibody + Alexa Fluor 488 secondary on PMA-differentiated THP-1 cells.
Test [5] concerns the target mouse MSR1 on RAW264.7 cells (mouse) (UniProt P30204). Nature of the test: flow cytometry, RAW264.7 cells, 10 ug/mL. On the technique in general: A flow cytometer gives signals particle by particle.
Test [6] deals with full length human MSR1 with a C-terminal Myc tag on HEK293.Myc.hMSR1 cells (human) (UniProt P21757). Nature of the test: ECL cell binding, HEK293.Myc.hMSR1 cells.
For test [7], the target named is full length monkey MSR1 on HEK293.mfMSR1 cells (Macaca fascicularis). Nature of the test: ECL cell binding, HEK293.mfMSR1 cells.
The target of test [8] is endogenously expressed human MSR1 on PMA-treated THP-1 cells (human) (UniProt P21757). Nature of the test: ECL cell binding, PMA-treated THP-1 cells.
Sequence of endogenously expressed human MSR1 on PMA-treated THP-1 cells (human) (P21757 whole entry): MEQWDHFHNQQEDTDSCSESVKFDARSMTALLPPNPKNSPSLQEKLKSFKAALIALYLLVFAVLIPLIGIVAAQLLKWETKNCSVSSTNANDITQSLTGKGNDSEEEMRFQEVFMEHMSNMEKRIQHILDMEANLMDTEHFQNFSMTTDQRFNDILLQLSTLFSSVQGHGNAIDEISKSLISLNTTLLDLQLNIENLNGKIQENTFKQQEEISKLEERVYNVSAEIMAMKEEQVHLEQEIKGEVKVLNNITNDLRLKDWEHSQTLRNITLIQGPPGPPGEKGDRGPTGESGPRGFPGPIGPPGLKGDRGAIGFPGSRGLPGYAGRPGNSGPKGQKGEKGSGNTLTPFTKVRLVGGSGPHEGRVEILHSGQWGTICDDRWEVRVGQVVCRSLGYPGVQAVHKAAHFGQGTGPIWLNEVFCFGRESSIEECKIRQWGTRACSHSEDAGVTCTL

Sequence of human MSR1 extracellular domain expressed with a N-terminal nonahistidine tag (His9-hMSR1; R&D Systems, Cat #2708-MS) (human) (P21757 other isoform, or with tags, fused parts or gaps): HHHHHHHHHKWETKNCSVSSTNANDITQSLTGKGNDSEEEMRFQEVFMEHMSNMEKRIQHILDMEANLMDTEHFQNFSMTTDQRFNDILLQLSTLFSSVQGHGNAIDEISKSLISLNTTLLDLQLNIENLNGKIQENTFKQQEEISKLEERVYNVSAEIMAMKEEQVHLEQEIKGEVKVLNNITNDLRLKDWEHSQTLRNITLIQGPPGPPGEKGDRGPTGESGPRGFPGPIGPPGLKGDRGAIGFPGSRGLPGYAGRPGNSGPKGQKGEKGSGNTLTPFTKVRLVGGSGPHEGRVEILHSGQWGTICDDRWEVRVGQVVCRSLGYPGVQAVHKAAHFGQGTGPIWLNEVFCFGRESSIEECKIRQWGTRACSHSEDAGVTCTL
Sequence of human MSR1 endogenously expressed on PMA-differentiated THP-1 cells (human) (P21757 whole entry): as the sequence (P21757 whole entry) above
Sequence of full length human MSR1 with a C-terminal Myc tag on HEK293.Myc.hMSR1 cells (human) (P21757 whole entry): as above
Sequence of mouse MSR1 on RAW264.7 cells (mouse) (P30204 whole entry): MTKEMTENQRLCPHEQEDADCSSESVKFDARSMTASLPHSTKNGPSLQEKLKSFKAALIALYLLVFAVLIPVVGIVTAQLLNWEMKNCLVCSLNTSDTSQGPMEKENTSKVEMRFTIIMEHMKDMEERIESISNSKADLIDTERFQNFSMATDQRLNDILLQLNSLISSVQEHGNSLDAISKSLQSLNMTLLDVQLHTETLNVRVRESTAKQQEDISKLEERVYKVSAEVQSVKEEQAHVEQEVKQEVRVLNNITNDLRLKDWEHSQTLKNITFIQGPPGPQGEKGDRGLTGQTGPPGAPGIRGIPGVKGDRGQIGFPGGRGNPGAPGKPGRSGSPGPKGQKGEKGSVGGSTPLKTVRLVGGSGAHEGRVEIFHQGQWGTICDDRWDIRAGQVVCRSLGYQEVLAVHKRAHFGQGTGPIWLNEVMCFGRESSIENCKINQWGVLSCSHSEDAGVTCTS
Sequence of full length monkey MSR1 on HEK293.mfMSR1 cells (Macaca fascicularis) (chain, as listed by the source): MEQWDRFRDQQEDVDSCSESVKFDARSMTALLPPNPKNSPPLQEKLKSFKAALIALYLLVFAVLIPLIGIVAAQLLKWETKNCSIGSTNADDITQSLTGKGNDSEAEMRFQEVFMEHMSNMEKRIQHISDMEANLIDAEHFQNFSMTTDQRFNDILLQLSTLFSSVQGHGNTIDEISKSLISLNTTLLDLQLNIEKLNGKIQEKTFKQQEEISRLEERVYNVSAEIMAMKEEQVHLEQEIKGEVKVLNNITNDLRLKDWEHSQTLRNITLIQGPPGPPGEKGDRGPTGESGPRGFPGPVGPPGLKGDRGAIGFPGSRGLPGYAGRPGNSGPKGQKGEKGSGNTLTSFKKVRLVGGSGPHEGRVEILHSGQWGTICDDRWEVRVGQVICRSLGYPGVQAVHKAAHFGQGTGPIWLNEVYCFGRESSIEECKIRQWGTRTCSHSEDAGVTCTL

For “Human IgG1 Isotype Control mAb (antibody)”, the % Blocking is -8% in test [1], 3% in test [2] and 4% in test [3].
On to Isotype control (Table 19) (antibody), for which, in test [4], the Total Binding at 4° C. (RFU) was found to be 186000 RFU and the Total Binding at 37° C. (RFU) is 1.09e+06 RFU.
With “Mouse IgG1 Isotype control mAb (antibody)”, the figures for the % Blocking in test [1], in test [2] and in test [3] were -4%, 16% and 7%, respectively.
“commercial anti-mouse MSR1 antibody (Sino Biological, Cat #50129-R004)”: in test [5], the MFI turned out to be 245000 and the S/N came to 97.
As for hIgG1 Isotype Control (antibody), the ratio of 11 nM antibody binding signal (RLU) to isotype control in test [6], in test [7] and in test [8] was 1 throughout.
Consider mIgG Isotype Control (antibody), for which the ratio of 11 nM antibody binding signal (RLU) to isotype control in test [6], in test [7] and in test [8] was 1 in each case.
